B1: Regulator of sigma D (Escherichia coli (strain K12)), P0AFX4 (parent)
chain: MLNQLDNLTERVRGSNKLVDRWLHVRKHLLVAYYNLVGIKPGKESYMRLNEKALDDFCQSLVDYLSAGHFSIYERILHKLEGNGQLARAAKIWPQLEANTQQIMDYYDSSLETAIDHDNYLEFQQVLSDIGEALEARFVLEDKLILLVLDAARVKHPA

Variants of: B1
Conditions: with rpod_ecoli rpoD

effect of a mutation on the interaction	Variant
decreasing interaction strength	MLNQLDNLTERVRGSNKLVDRWLHVRKHLLVAYFNLVGIKPGKESYMRLNEKALDDFCQSLVDYLSAGHFSIYERILHKLEGNGQLARAAKIWPQLEANTQQIMDYYDSSLETAIDHDNYLEFQQVLSDIGEALEARFVLEDKLILLVLDAARVKHPA
increasing interaction strength	MLNQLDNLTERVRESNKLVDRWLHVRKHLLVAYYNLVGIKPGKESYMRLNEKALDDFCQSLVDYLSAGHFSIYERILHKLEGNGQLARAAKIWPQLEANTQQIMDYYDSSLETAIDHDNYLEFQQVLSDIGEALEARFVLEDKLILLVLDAARVKHPA
increasing interaction strength	MLNQLDNLTERVRESNKLVDRWLHVRKHLLVAYFNLVGIKPGKESYMRLNEKALDDFCQSLVDYLSAGHFSIYERILHKLEGNGQLARAAKIWPQLEANTQQIMDYYDSSLETAIDHDNYLEFQQVLSDIGEALEARFVLEDKLILLVLDAARVKHPA

Variants of: B1
Conditions: with rpod_ecoli rpoD
Remark: another data set of the same source

effect of a mutation on the interaction	Variant
increasing interaction strength	MLNQLDNLTERVRGSNKLVDRWLHVRKHLLVAYFNLVGIKPGKESYMRLNEKALDDFCQSLVDYLSAGHFSIYERILHKLEGNGQLARAAKIWPQLEANTQQIMDYYDSSLETAIDHDNYLEFQQVLSDIGEALEARFVLEDKLILLVLDAARVKHPA
disrupting interaction strength	MLNQLDNLTERVRGSNKLVDRWLHVRKHLLVAYYNLVGIKPGKESYMRLNEKALDDFCQSLVDYLSAGHFSIYERILHKLEGNGQLARAAKIWPQLEANTQQIMDYYDSSLETAIDHDNYLEFQQVLSDIGEALEARFVLENKLILLVLDAARVKHPA
